How the values were obtained:
human FcRn/b2M [1] = target: T1, human FcRn/b2M (human, UniProt P61769 21-119, biotinylated); assay: SPR pH 6.0
T1 construct: bought recombinant biotinylated protein (ACRO FCM-H82W4 or Immunitrack ITF01); also called hFcRn; hFcRn/hb2M

cyno FcRn/b2M [2] = target: T2, cyno FcRn/b2M (cyno, UniProt Q8SPV9 24-297; Q8SPW0 21-119, biotinylated); assay: SPR pH 6.0
T2 construct: bought recombinant biotinylated protein (Immunitrack ITF05 or ACRO FCM-C82W5); also called cFcRn; cFcRn/cb2M
T2 sequence (Q8SPV9 24-297 limits assumed, chain 1 of 2): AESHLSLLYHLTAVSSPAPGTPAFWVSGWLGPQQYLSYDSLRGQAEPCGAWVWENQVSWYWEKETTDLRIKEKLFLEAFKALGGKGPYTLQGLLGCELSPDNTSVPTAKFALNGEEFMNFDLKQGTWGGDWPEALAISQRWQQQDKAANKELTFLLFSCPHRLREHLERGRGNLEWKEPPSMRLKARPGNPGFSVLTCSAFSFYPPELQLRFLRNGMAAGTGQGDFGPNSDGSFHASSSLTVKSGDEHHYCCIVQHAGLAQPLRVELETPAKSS
T2 sequence (Q8SPW0 21-119 limits assumed, chain 2 of 2): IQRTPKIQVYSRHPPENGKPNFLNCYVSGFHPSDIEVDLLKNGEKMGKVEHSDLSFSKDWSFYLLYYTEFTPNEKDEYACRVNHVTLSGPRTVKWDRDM

human FcRn/b2M [3] = target: T1, human FcRn/b2M; assay: SPR pH 6.0; remark: listed apart in the source
human FcRn/b2M [4] = target: T1, human FcRn/b2M; assay: SPR pH 7.4
cyno FcRn/b2M [5] = target: T2, cyno FcRn/b2M; assay: SPR pH 7.4
human FcRn/b2M [6] = target: T1, human FcRn/b2M; assay: SPR off-rate pH 6.0
human FcRn/b2M [7] = target: T1, human FcRn/b2M; assay: SPR pH 7.4; remark: listed apart in the source
Description: (§1) The affinities of the monovalent purified, tagless ISVDs were determined for human FcRn on ProteOn XPR36 (BioRad Laboratories, Inc.), the MASS-2 (Sierra sensors, Gmbh) or SPR-32 (Bruker Corporation) instrument. In the same way, the affinities of bivalent ISVD constructs comprising two of the same monovalent building blocks of purified, tagless ISVDs were determined for human FcRn on ProteOn XPR36 (BioRad Laboratories, Inc.), the MASS-2 (Sierra sensors, Gmbh) or SPR-32 (Bruker Corporation) instrument. For affinity measurements, ˜1000-3000RU (hFcRn/hb2M; ACRO Biosystems FCM-H82W4) was captured on a ProteOn NLC sensor (ProteOn) or Biotin-tag Capture Chip or a High Capacity Amine Chip (pre-immobilized with neutravidin; MASS-2). The ISVDs were injected at 6 different concentrations (between 1 and 4000 nM) and allowed to associate for 120s at 45 μL/min and dissociate for 600s-3600s at 45 μL/min. […] Evaluation of the sensorgrams was based on the 1:1 Langmuir dissociation model simultaneously fitting on and off-rates.

cyno FcRn/b2M [8] = target: T2, cyno FcRn/b2M; assay: SPR pH 7.4; remark: listed apart in the source
Description: as §1

human FcRn/b2M [9] = target: T1, human FcRn/b2M; assay: SPR pH 6.0; remark: listed apart in the source
Description: as §1

cyno FcRn/b2M [10] = target: T2, cyno FcRn/b2M; assay: SPR pH 6.0; remark: listed apart in the source
Description: as §1

cyno FcRn/b2M [11] = target: T2, cyno FcRn/b2M; assay: SPR pH 7.4; remark: listed apart in the source
Description: (§2) The affinity of the purified, multivalent ISVD constructs for human and cyno FcRn was determined on the MASS-2 (Sierra sensors, Gmbh) instrument, hFcRn/hb2M and cFcRn/cb2M was captured on a Biotin-tag Capture Chip or a High Capacity Amine Chip (pre-immobilized with neutravidin). The ISVD constructs were injected at 6 different concentrations (between 1 and 4000 nM) and allowed to associate for 120 s at 45 μL/min and dissociate for 600 s-3600 s at 45 μL/min. […] Evaluation of the sensorgrams was based on the 1:1 Langmuir dissociation model simultaneously fitting on and off-rates.

human FcRn/b2M [12] = target: T1, human FcRn/b2M; assay: SPR pH 6.0; remark: listed apart in the source
Description: as §2

cyno FcRn/b2M [13] = target: T2, cyno FcRn/b2M; assay: SPR pH 6.0; remark: listed apart in the source
Description: as §2

human serum albumin [14] = target: T3, human serum albumin (human, UniProt P02768 25-609); assay: SPR pH 7.4
T3 construct: also called HSA
Description: (§3) The affinity of the purified, multivalent ISVD constructs for human and mouse serum albumin (HSA and MSA, respectively) was determined on the ProteOn XPR36 (BioRad Laboratories, Inc.) instrument. […] The ISVD constructs were injected at 6 different concentrations (between 1 and 500 nM) and allowed to associate for 120 s at 45 μL/min and dissociate for 600s-3600s at 45 μL/min. Evaluation of the sensorgrams was based on the 1:1 Langmuir dissociation model simultaneously fitting on and off-rates.

mouse serum albumin [15] = target: T4, mouse serum albumin (mouse, UniProt P07724 25-608); assay: SPR pH 7.4
T4 construct: also called MSA
T4 sequence (P07724 25-608 limits assumed): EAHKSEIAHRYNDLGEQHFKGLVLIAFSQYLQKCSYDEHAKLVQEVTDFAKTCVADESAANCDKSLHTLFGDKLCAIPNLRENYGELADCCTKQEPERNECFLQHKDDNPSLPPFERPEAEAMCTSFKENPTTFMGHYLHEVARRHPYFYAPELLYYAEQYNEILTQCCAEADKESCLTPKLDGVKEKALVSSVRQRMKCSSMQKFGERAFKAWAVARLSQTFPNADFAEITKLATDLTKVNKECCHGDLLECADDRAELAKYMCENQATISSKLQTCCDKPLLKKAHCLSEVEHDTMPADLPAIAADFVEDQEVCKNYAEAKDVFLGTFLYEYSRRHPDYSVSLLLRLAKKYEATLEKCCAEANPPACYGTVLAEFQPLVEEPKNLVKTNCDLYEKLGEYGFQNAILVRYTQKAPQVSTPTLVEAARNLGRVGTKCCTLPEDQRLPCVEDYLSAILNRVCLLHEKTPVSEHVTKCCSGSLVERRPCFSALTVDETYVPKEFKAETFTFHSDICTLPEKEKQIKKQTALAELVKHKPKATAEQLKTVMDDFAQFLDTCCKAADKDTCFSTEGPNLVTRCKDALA
Description: as §3

human serum albumin [16] = target: T3, human serum albumin; assay: SPR pH 6.0
Description: as §3

mouse serum albumin [17] = target: T4, mouse serum albumin; assay: SPR pH 6.0
Description: as §3

cyno FcRn/b2M [18] = target: T2, cyno FcRn/b2M; assay: SPR pH 6.0; remark: listed apart in the source
Description: as §2

human serum albumin [19] = target: T3, human serum albumin; assay: SPR pH 7.4; remark: listed apart in the source
Description: as §3

human serum albumin [20] = target: T3, human serum albumin; assay: SPR pH 6.0; remark: listed apart in the source
Description: as §3

T1 sequence (chain, as listed by the source limits assumed, chain 1 of 2): as the sequence (Q8SPV9 24-297 limits assumed, chain 1 of 2) above, with D39N, Q44E, S99G, G189S, N190S, M217L, T269S counted along it
T1 sequence (P61769 21-119 limits assumed, chain 2 of 2): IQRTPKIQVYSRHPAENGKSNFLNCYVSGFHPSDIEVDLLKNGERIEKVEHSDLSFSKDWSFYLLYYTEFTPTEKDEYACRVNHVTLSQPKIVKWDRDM

B1: T026301057 (VHH, name in Kabat numbering)
VHH: EVQLVESGGGVVQPGGSLRLSCAASGFTFSEYAMYWVRQAPGKGLEWVSAISQGGGSTDYADSVKGRFTISRDNSKNTLYLQMNSLRPEDTALYYCAADTLYTSLTSYSYWGQGTLVTVSS
notes: tagless
Kd (human FcRn/b2M [1]): 390 nM | Kd (cyno FcRn/b2M [2]): 260 nM | koff (human FcRn/b2M [3]): 0.016 s⁻¹

B2: T026301063 (VHH, name in Kabat numbering)
VHH: EVQLVESGGGVVQPGGSLRLSCAASTFTFSSYAMYWVRQAPGKGLEWVSAISQGGGSTDYADSVKGRFTISRDNSKNTLYLQMNSLRPEDTALYYCAADTLYTSLTWYSYWGQGTLVTVSS
notes: tagless
Kd (human FcRn/b2M [1]): 62 nM | Kd (cyno FcRn/b2M [2]): 41 nM | koff (human FcRn/b2M [3]): 0.005 s⁻¹

B3: T026301069 (VHH, name in Kabat numbering)
VHH: EVQLVESGGGVVQPGGSLRLSCAASGFTFSSYDMYWVRQAPGKGLEWVSAISQGGGSTDYADSVKGRFTISRDNSKNTLYLQMNSLRPEDTALYYCAADTLYTSLTSYSYWGQGTLVTVSS
notes: tagless
Kd (cyno FcRn/b2M [2]): 23 nM

B4: T026301070 (VHH, name in Kabat numbering)
VHH: EVQLVESGGGVVQPGGSLRLSCAASGFTFSEYDMYWVRQAPGKGLEWVSAISQGGGSTDYADSVKGRFTISRDNSKNTLYLQMNSLRPEDTALYYCAADTLYTSLTSYSYWGQGTLVTVSS
notes: tagless
Kd (human FcRn/b2M [1]): 150 nM | Kd (cyno FcRn/b2M [2]): 140 nM | koff (human FcRn/b2M [3]): 0.0046 s⁻¹

B5: T026301075 (VHH, name in Kabat numbering)
VHH: EVQLVESGGGVVQPGGSLRLSCAASTFTFSEYAMYWVRQAPGKGLEWVSAISSGGGSTDYADSVKGRFTISRDNSKNTLYLQMNSLRPEDTALYYCAADTLYTSLTWYSYWGQGTLVTVSS
notes: tagless
Kd (cyno FcRn/b2M [2]): 21 nM | Kd (human FcRn/b2M [4]): 5600 nM | Kd (cyno FcRn/b2M [5]): 3100 nM

B6: T026301076 (VHH, name in Kabat numbering)
VHH: EVQLVESGGGVVQPGGSLRLSCAASGFTFSSYDMYWVRQAPGKGLEWVSAISQGGGSTDYADSVKGRFTISRDNSKNTLYLQMNSLRPEDTALYYCAADTLYTSLTKYSYWGQGTLVTVSS
notes: tagless
Kd (human FcRn/b2M [1]): 120 nM | Kd (cyno FcRn/b2M [2]): 37 nM | koff (human FcRn/b2M [3]): 0.003 s⁻¹

B7: T026301080 (VHH, name in Kabat numbering)
VHH: EVQLVESGGGVVQPGGSLRLSCAASGFTFSSYDMYWVRQAPGKGLEWVSAISSGGGSTDYADSVKGRFTISRDNSKNTLYLQMNSLRPEDTALYYCAADTLYTSLTSYSYWGQGTLVTVSS
notes: tagless
Kd (human FcRn/b2M [1]): 150 nM | Kd (cyno FcRn/b2M [2]): 130 nM | koff (human FcRn/b2M [3]): 0.0051 s⁻¹

B8: T026301087 (VHH, name in Kabat numbering)
VHH: EVQLVESGGGVVQPGGSLRLSCAASGFTFSEYDMYWVRQAPGKGLEWVSAISQGGGSTDYADSVKGRFTISRDNSKNTLYLQMNSLRPEDTALYYCAADTLYTSLTWYSYWGQGTLVTVSS
notes: tagless
Kd (human FcRn/b2M [1]): 25 nM | Kd (cyno FcRn/b2M [2]): 20 nM | koff (human FcRn/b2M [3]): 0.0011 s⁻¹

B9: T026301091 (VHH, name in Kabat numbering)
VHH: EVQLVESGGGVVQPGGSLRLSCAASGFTFSEYDMYWVRQAPGKGLEWVSAISSGGGSTDYADSVKGRFTISRDNSKNTLYLQMNSLRPEDTALYYCAADTLYTSLTSYSYWGQGTLVTVSS
notes: tagless
Kd (human FcRn/b2M [1]): 250 nM | Kd (cyno FcRn/b2M [2]): 160 nM | koff (human FcRn/b2M [3]): 0.0062 s⁻¹

B10: T026301098 (VHH, name in Kabat numbering)
VHH: EVQLVESGGGVVQPGGSLRLSCAASGFTFSDYAMYWVRQAPGKGLEWVSAISSGGGSTDYADSVKGRFTISRDNSKNTLYLQMNSLRPEDTALYYCAADTLYTSLTWYSYWGQGTLVTVSS
notes: tagless; also called T0263018B11 S31D
Kd (human FcRn/b2M [1]): 200 nM | Kd (cyno FcRn/b2M [2]): 140 nM | koff (human FcRn/b2M [3]): 0.013 s⁻¹

B11: T026301099 (VHH, name in Kabat numbering)
VHH: EVQLVESGGGVVQPGGSLRLSCAASGFTFSEYDMYWVRQAPGKGLEWVSAISSGGGSTDYADSVKGRFTISRDNSKNTLYLQMNSLRPEDTALYYCAADTLYTSLTWYSYWGQGTLVTVSS
notes: tagless
Kd (human FcRn/b2M [1]): 30 nM

B12: T026301100 (VHH, name in Kabat numbering)
VHH: EVQLVESGGGVVQPGGSLRLSCAASGFTFSSYDMYWVRQAPGKGLEWVSAISQGGGSTDYADSVKGRFTISRDNSKNTLYLQMNSLRPEDTALYYCAADTLYTDLTWYSYWGQGTLVTVSS
notes: tagless
Kd (human FcRn/b2M [1]): 140 nM | Kd (cyno FcRn/b2M [2]): 98 nM | koff (human FcRn/b2M [3]): 0.0039 s⁻¹

B13: T026301117 (VHH, name in Kabat numbering)
VHH: EVQLVESGGGVVQPGGSLRLSCAASGFTFSEYAMYWVRQAPGKGLEWVSAISSGGGSTDYADSVKGRFTISRDNSKNTLYLQMNSLRPEDTALYYCAADTLYTSLTSYSYWGQGTLVTVSS
notes: tagless
Kd (human FcRn/b2M [1]): 170 nM | Kd (cyno FcRn/b2M [2]): 110 nM | koff (human FcRn/b2M [3]): 0.0067 s⁻¹

B14: T026301129 (VHH, name in Kabat numbering)
VHH: EVQLVESGGGVVQPGGSLRLSCAASGFTFSEYDMYWVRQAPGKGLEWVSAISQGGGSTDYADSVKGRFTISRDNSKNTLYLQMNSLRPEDTALYYCAADTLYTDLTKYSYWGQGTLVTVSS
notes: tagless
binding result (human FcRn/b2M [6]): no binding

B15: T026301130 (VHH, name in Kabat numbering)
VHH: EVQLVESGGGVVQPGGSLRLSCAASTFTFSEYDMYWVRQAPGKGLEWVSAISSGGGSTDYADSVKGRFTISRDNSKNTLYLQMNSLRPEDTALYYCAADTLYTDLTSYSYWGQGTLVTVSS
notes: tagless
binding result (human FcRn/b2M [6]): no binding

B16: T026301131 (VHH, name in Kabat numbering)
VHH: EVQLVESGGGVVQPGGSLRLSCAASTFTFSSYDMYWVRQAPGKGLEWVSAISSGGGSTDYADSVKGRFTISRDNSKNTLYLQMNSLRPEDTALYYCAADTLYTDLTSYSYWGQGTLVTVSS
notes: tagless
binding result (human FcRn/b2M [6]): no binding

B17: T026301230 (other, name in Kabat numbering, not shown: small tags and cut ends)
chain: DVQLVESGGGVVQPGGSLRLSCAASGFTFSSYAMYWVRQAPGKGLEWVSAISSGGGSTDYADSVKGRFTISRDNSKNTLYLQMNSLRPEDTALYYCAADTLYTSLTSYSYWGQGTLVTVSS
notes: pentavalent ISVD construct
Kd (human FcRn/b2M [7]): 670 nM | Kd (cyno FcRn/b2M [8]): 580 nM | Kd (human FcRn/b2M [9]): 100 nM | Kd (cyno FcRn/b2M [10]): 54 nM

B18: T026301233 (other, name in Kabat numbering, not shown: small tags and cut ends)
chain: DVQLVESGGGVVQPGGSLRLSCAASTFTFSSYAMYWVRQAPGKGLEWVSAISQGGGSTDYADSVKGRFTISRDNSKNTLYLQMNSLRPEDTALYYCAADTLYTSLTSYSYWGQGTLVTVSS
notes: pentavalent ISVD construct
Kd (human FcRn/b2M [7]): 750 nM | Kd (cyno FcRn/b2M [8]): 420 nM | Kd (human FcRn/b2M [9]): 490 nM | Kd (cyno FcRn/b2M [10]): 270 nM

B19: T026301192 (bispecific antibody, name in Kabat numbering)
chain: DVQLVESGGGVVQPGGSLRLSCAASGFTFSSYAMYWVRQAPGKGLEWVSAISSGGGSTDYADSVKGRFTISRDNSKNTLYLQMNSLRPEDTALYYCAADTLYTELTWYSYWGQGTLVTVSSGGGGSGGGGSGGGGSGGGGSGGGGSGGGGSGGGGSEVQLVESGGGVVQPGGSLRLSCAASGFTFRSFGMSWVRQAPGKGPEWVSSISGSGSDTLYADSVKGRFTISRDNSKNTLYLQMNSLRPEDTALYYCTIGGSLSRSSQGTLVTVSSA
notes: bispecific ISVD construct; also called T0263018B11(E1D, S100E)-35GS-ALB23002-A
Kd (cyno FcRn/b2M [11]): 480 nM | Kd (human FcRn/b2M [12]): 250 nM | Kd (cyno FcRn/b2M [13]): 140 nM | Kd (human serum albumin [14]): 12 nM | Kd (mouse serum albumin [15]): 87 nM | Kd (human serum albumin [16]): 5.7 nM | Kd (mouse serum albumin [17]): 64 nM

B20: T026301196 (bispecific antibody, name in Kabat numbering)
chain: DVQLVESGGGVVQPGGSLRLSCAASTFTFSSYAMYWVRQAPGKGLEWVSAISQGGGSTDYADSVKGRFTISRDNSKNTLYLQMNSLRPEDTALYYCAADTLYTSLTSYSYWGQGTLVTVSSGGGGSGGGGSGGGGSGGGGSGGGGSGGGGSGGGGSEVQLVESGGGVVQPGGSLRLSCAASGFTFRSFGMSWVRQAPGKGPEWVSSISGSGSDTLYADSVKGRFTISRDNSKNTLYLQMNSLRPEDTALYYCTIGGSLSRSSQGTLVTVSSA
notes: bispecific ISVD construct; also called T0263018B11(E1D, G26T, S52aQ, W100cS)-35GS-ALB23002-A
Kd (human FcRn/b2M [12]): 1000 nM | Kd (cyno FcRn/b2M [13]): 510 nM | Kd (human serum albumin [14]): 15 nM | Kd (mouse serum albumin [15]): 120 nM | Kd (human serum albumin [16]): 7.4 nM | Kd (mouse serum albumin [17]): 89 nM

B21: T026301366 (bispecific antibody, not shown: small tags and cut ends)
chain: EVQLVESGGGVVQPGGSLRLSCAASGFTFSSYAMYWVRQAPGKGLEWVSAISSGGGSTDYADSVKGRFTISRDNSKNTLYLQMNSLRPEDTALYYCAADTLYTSLTSYSYWGQGTLVTVSSGGGGSGGGGSGGGGSGGGGSGGGGSGGGGSGGGGSEVQLVESGGGVVQPGGSLRLSCAASGFTFRSFGMSWVRQAPGKGPEWVSSISGSGSDTLYADSVKGRFTISRDNSKNTLYLQMNSLRPEDTALYYCTIGGSLSRSSQGTLVTVSSA
notes: tetravalent ISVD construct; also called X-Y-FcRn(W100cS)-35GS-ALB23002
Kd (cyno FcRn/b2M [18]): 180 nM | Kd (human serum albumin [19]): 7.5 nM | Kd (human serum albumin [20]): 10 nM

— patent US20240132624A1 (Ablynx, published 2024)
